Earlier results as cited in US20200069786A1, “COMPOSITION AND PROCESS FOR PREPARING VACCINE” (TREOS BIO ZRT., priority 2018, published 2020).
Like-named read-outs stand apart in the source and are kept apart here.

Tested on: TSA

B1: PAGE1 (protein, UniProt O75459 1-146, looked up)
P antigen family member 1: MGFLRRLIYRRRPMIYVESSEESSDEQPDEVESPTQSQDSTPAEEREDEGASAAQGQEPEADSQELVQPKTGCELGDGPDTKRVCLRNEEQMKLPAEGPEPEADSQEQVHPKTGCERGDGPDVQELGLPNPEEVKTPEEDEGQSQP
Expression Rate (ER) % (TSA expression rate in CRC): 0%

B2: TEX101 (protein, UniProt Q9BY14 26-222, looked up)
Testis-expressed protein 101: LYCQKGLSMTVEADPANMFNWTTEEVETCDKGALCQETILIIKAGTETAILATKGCIPEGEEAITIVQHSSPPGLIVTSYSNYCEDSFCNDKDSLSQFWEFSETTASTVSTTLHCPTCVALGTCFSAPSLPCPNGTTRCYQGKLEITGGGIESSVEVKGCTAMIGCRLMSGILAVGPMFVREACPHQLLTQPRKTEN
TSA Expression Rate (ER) (BREAST): 0%

B3: MCAK (protein, UniProt Q99661 2-725, looked up)
Kinesin-like protein KIF2C: AMDSSLQARLFPGLAIKIQRSNGLIHSANVRTVNLEKSCVSVEWAEGGATKGKEIDFDDVAAINPELLQLLPLHPKDNLPLQENVTIQKQKRRSVNSKIPAPKESLRSRSTRMSTVSELRITAQENDMEVELPAAANSRKQFSVPPAPTRPSCPAVAEIPLRMVSEEMEEQVHSIRGSSSANPVNSVRRKSCLVKEVEKMKNKREEKKAQNSEMRMKRAQEYDSSFPNWEFARMIKEFRATLECHPLTMTDPIEEHRICVCVRKRPLNKQELAKKEIDVISIPSKCLLLVHEPKLKVDLTKYLENQAFCFDFAFDETASNEVVYRFTARPLVQTIFEGGKATCFAYGQTGSGKTHTMGGDLSGKAQNASKGIYAMASRDVFLLKNQPCYRKLGLEVYVTFFEIYNGKLFDLLNKKAKLRVLEDGKQQVQVVGLQEHLVNSADDVIKMIDMGSACRTSGQTFANSNSSRSHACFQIILRAKGRMHGKFSLVDLAGNERGADTSSADRQTRMEGAEINKSLLALKECIRALGQNKAHTPFRESKLTQVLRDSFIGENSRTCMIATISPGISSCEYTLNTLRYADRVKELSPHSGPSGEQLIQMETEEMEACSNGALIPGNLSKEEEELSSQMSSFNEAMTQIRELEEKAMEELKEIIQQGPDWLELSEMTEQPDYDLETFVNKAESALAQQAKHFSALRDVIKALRLAMQLEEQASRQISSKKRPQ
Expression Rate (ER) % (TSA expression rate in CRC): 100%

B4: TTK (protein, UniProt P33981 1-857, looked up)
Dual specificity protein …: MESEDLSGRELTIDSIMNKVRDIKNKFKNEDLTDELSLNKISADTTDNSGTVNQIMMMANNPEDWLSLLLKLEKNSVPLSDALLNKLIGRYSQAIEALPPDKYGQNESFARIQVRFAELKAIQEPDDARDYFQMARANCKKFAFVHISFAQFELSQGNVKKSKQLLQKAVERGAVPLEMLEIALRNLNLQKKQLLSEEEKKNLSASTVLTAQESFSGSLGHLQNRNNSCDSRGQTTKARFLYGENMPPQDAEIGYRNSLRQTNKTKQSCPFGRVPVNLLNSPDCDVKTDDSVVPCFMKRQTSRSECRDLVVPGSKPSGNDSCELRNLKSVQNSHFKEPLVSDEKSSELIITDSITLKNKTESSLLAKLEETKEYQEPEVPESNQKQWQSKRKSECINQNPAASSNHWQIPELARKVNTEQKHTTFEQPVFSVSKQSPPISTSKWFDPKSICKTPSSNTLDDYMSCFRTPVVKNDFPPACQLSTPYGQPACFQQQQHQILATPLQNLQVLASSSANECISVKGRIYSILKQIGSGGSSKVFQVLNEKKQIYAIKYVNLEEADNQTLDSYRNEIAYLNKLQQHSDKIIRLYDYEITDQYIYMVMECGNIDLNSWLKKKKSIDPWERKSYWKNMLEAVHTIHQHGIVHSDLKPANFLIVDGMLKLIDFGIANQMQPDTTSVVKDSQVGTVNYMPPEAIKDMSSSRENGKSKSKISPKSDVWSLGCILYYMTYGKTPFQQIINQISKLHAIIDPNHEIEFPDIPEKDLQDVLKCCLKRDPKQRISIPELLAHPYVQIQTHPVNQMAKGTTEEMKYVLGQLVGLNSPNSILKAAKTLYEHYSGGESHNSSSSKTFEKKRGKK
Expression Rate (ER) % (TSA expression rate in Esophageal): 97%

B5: SART3 (protein, UniProt Q15020 2-963, looked up)
Spliceosome associated factor …: ATAAETSASEPEAESKAGPKADGEEDEVKAARTRRKVLSRAVAAATYKTMGPAWDQQEEGVSESDGDEYAMASSAESSPGEYEWEYDEEEEKNQLEIERLEEQLSINVYDYNCHVDLIRLLRLEGELTKVRMARQKMSEIFPLTEELWLEWLHDEISMAQDGLDREHVYDLFEKAVKDYICPNIWLEYGQYSVGGIGQKGGLEKVRSVFERALSSVGLHMTKGLALWEAYREFESAIVEAARLEKVHSLFRRQLAIPLYDMEATFAEYEEWSEDPIPESVIQNYNKALQQLEKYKPYEEALLQAEAPRLAEYQAYIDFEMKIGDPARIQLIFERALVENCLVPDLWIRYSQYLDRQLKVKDLVLSVHNRAIRNCPWTVALWSRYLLAMERHGVDHQVISVTFEKALNAGFIQATDYVEIWQAYLDYLRRRVDFKQDSSKELEELRAAFTRALEYLKQEVEERFNESGDPSCVIMQNWARIEARLCNNMQKARELWDSIMTRGNAKYANMWLEYYNLERAHGDTQHCRKALHRAVQCTSDYPEHVCEVLLTMERTEGSLEDWDIAVQKTETRLARVNEQRMKAAEKEAALVQQEEEKAEQRKRARAEKKALKKKKKIRGPEKRGADEDDEKEWGDDEEEQPSKRRRVENSIPAAGETQNVEVAAGPAGKCAAVDVEPPSKQKEKAASLKRDMPKVLHDSSKDSITVFVSNLPYSMQEPDTKLRPLFEACGEVVQIRPIFSNRGDFRGYCYVEFKEEKSALQALEMDRKSVEGRPMFVSPCVDKSKNPDFKVFRYSTSLEKHKLFISGLPFSCTKEELEEICKAHGTVKDLRLVTNRAGKPKGLAYVEYENESQASQAVMKMDGMTIKENIIKVAISNPPQRKVPEKPETRKAPGGPMLLPQTYGARGKGRTQLSLLPRALQRPSAAAPQAENGPAAAPAVAAPAATEAPKMSNADFAKLFLRK
Expression Rate (ER) % (TSA expression rate in PEDIATRIC): 73%
